Assay results as given in the RNAGym collection of RNA variant scans (doi:10.1073/pnas.2313332121).

B1: TPR t1 (parent)
chain: GACCAAUCUGCCCUCAGAGCUCGAGAACAUCUUCGGAUGCAGAGGAGGCAGGCUUCGGUGGCGCGAUAGCGCCAACGUCCUCAACCUCCAAUGCAUCCCACCACAUGAUGAUGCCUGAAGAGCCUUGGUUUUUUG

Variants of: B1
Assay: polymerase ribozyme fitness, log enrichment relative to wild type (log ratio); higher = more active; in vitro selection for triplet polymerase activity
How it was run: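 A single round of triplicate in vitro selection, including frozen incubation at −7 °C, was applied to PCR-built, transcribed mutant libraries of each subunit of a heterodimeric triplet polymerase ribozyme. Illumina sequencing of input and output libraries retained genotypes with ≥10 input reads and ≥1 read per output. Fitness is the base-2 logarithm of genotype enrichment divided by wild-type enrichment, from inverse-variance-weighted replicate averages.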

Row | Variant | polymerase ribozyme fitness (log ratio)
1 | GACCAAUCUGCCCUCAGAGCUCGAGAACAUCUUCGGAUGCAGAGUAGGUAGGCUUCGGUGGCGCGAUAGCGCCAACGUCCUCAACCUCCAAUGCAUCCCACCACAUGAUGAUGCCUGAAGAGCCUUGGUUUUUUG [G45U C49U] | -1.85
2 | GACCAAUCCGCCCUCAGAGCUCGAGAACAUCUUCGGAUGCAGAGGAGGCAGGCUUCGGUUGCGCGAUAGCGCCAACGUCCUCAACCUCCAAUGCAUCCCACCACAUGAUGAUGCCUGAAGAGCCUUGGUUUUUUG [U9C G60U] | 0.0949
3 | GACCAAUCUGCCCUCAGAGCUCGAGAACAUCUUAGGCUGCAGAGGAGGCAGGCUUCGGUGGCGCGAUAGCGUCAACGUCCUCAACCUCCAAUGCAUCCCACCACAUGAUGAUGCCUGGAGAGCCUUGGUUUUUUG [C34A A37C C72U A118G] | -2.87
4 | GACCAAUCUGCCCUCAGAGCUCGAGAACAUCUUCGGAUUCAGAGGAGGCAGGGUUCGGUGGCGCGAUAGCGCCAACGUCCUCAACCUCCAAUGCAUCCCACCACAUGAUGAUGCCUGAAGAGCCUUGGUUUUUUG [G39U C53G] | 0.711
5 | GACCAAUCUGCCCUCAGAGCUCGAGAACAUCUUCGGUUGCAGAGGAGGCAGGCUUCGGUGGCGCGAUAGCACCAACGUCCUCACUCUCCAAUGCAACCCACCACAUGAUGAUGCCUGAAGAGCCUUGGUUUUUUG [A37U G71A A84C C85U U96A] | -0.538
6 | GACCAAUCUGCCCUCAGAGCUCGAGAACAUCUUCGGACGCAGAGGAGGCAGGCUUCGGUGGCGCGAUAGCGCCAACGUCCUCAACCUCCAAUGCAUCCCACCACAUGAUUAUGCCUGAAGAGCCUUGGUUUUUUU [U38C G110U G135U] | -3.96
7 | GACCAAUCUGCCCUCAGAGCUCGAGAACAUCUUCGGAUGCAGAGGAGGAAGGCUUCGGUGGCGCGAUAGCGCCAACGUCCUCAACCUCCAAUGCAUCCCACCACAUGAUGAUGUCUGAAGAGCCUUGGUUUUUUG [C49A C114U] | -1.61
8 | GACCAAUCUGCCCUCAGAGCUCGAGAACAUCUUCGGAUGCAGAGGAGGCAGGCUUUGGUGGCGCGAUAGCGCCAACGUCCUCAACCUCCAAUGCAUCCCACCACAUGAUGACGCCUGAAGAGCCUUGGUUUUUUG [C56U U112C] | 0.364
9 | GACCAAUCUGCCCUCAGAGCUCGAGAACAUCUUCGGAUGCAGAGGAGGCAGGCUUCGGUGGCGCGAUAGCGCCAACGUCCUCAACCUCCAAUGCAUCCCACCACAUGAUGAUGCCUGAGGAGCCUUGGUUUUUUG [A119G] | 1.12
10 | GACCAAUCUGACGUCAGAGCUCGAGAACAUCUUCGUAUGCAGAGGAGGCAGGCUUCGGUGGCGCGAUAGCGCCAACGUCCUCAACCUCCAAUGCAUCCCACCACAUGAUGAUGCCUGAAGAGCCUUGGUUUUUUG [C11A C13G G36U] | -2.87
11 | GACCAAUCUGCGCUCAGAGCUCGAGAACAUCUUCGGAUGCAGAGGAGGCAGGCUUCGGUGGCGCGAUAGCGCCAACGUCCUCAACCUCCAAUGCAUCCCACCACAUGAUGAUGCAUGAAGAGCCUUGGUUUUUUG [C12G C115A] | -0.408
12 | GACCAAUCUGCCCUCAGAGCUCGAGAACAUCUUCGGAUGCAGAGGAGGCAGGCUUCGGUGGCGCGAUAGCGCCAACGUCCUCAACAUCCAAUGCAUCCUAUCACAUGAUGAUGCCUGAAGGUCCUUGGUUUUUUG [C86A C99U C101U A121G G122U] | -1.38
13 | GACCAAUCUGCCCUCAGAGCUGGAGAACAUCUUCGAAUGCAGAGGAGGCAGGCUUCGGUGGCGCGAUAGCGCCAACGUCCUCAACCUCCAAUGCAUCCCAUCACAUGAUGAUGCCUGAAGAGCCUUGGUUUUUUG [C22G G36A C101U] | -5.03
14 | GACCAAUCUGACCUCAGAGCUCGAGAACAUCUUCGGAUGCAGAGGAGGCAGGCUUCGGUGGCGCGAUAGCGACAACGUCCUCAACCUCCAGUGCAUCCCACCACAUGAUGAUGCCUGAAGAGCCUGGGUUUUUUG [C11A C72A A91G U126G] | -5.33
15 | GACCAAUCUGCCCUCAGAGCUCGCGAACAUCUUCGGAGGCAGAGGAGGCAGGCUUCGGUGGCGCGAUAGCGCCAACGUCCUCAACCUCUAAUGCAUCCCACCACAUGAUGAUUCCUGAAGAGCCUUGGUUUUUUG [A24C U38G C89U G113U] | -6.49
16 | GACCAAUCUGCCCUCAGAGCCCGAGAACAUCUUCGGAUGCAGAGGAGGCAGGCUUCGGUGGCGCGAUAACGCCAACGUCCUCAACCUCCAAUGCAUCCCACCAUAUGAUGAUGCCUGAAGAGCCUUGGUUUUUUG [U21C G69A C104U] | -2.28
17 | GACCAAUCUGCCCUCAGAGCUCGAGAACAUCUUCGGAUGCAGAGGAGGCAGGCUUCGGUGGCGUGAUAGCGCCAACGUCCUUAACCUCCAAUUUACCCCACCACAUGAUGAUGCCUGAAGAGUCUUGGUUUUUUG [C64U C82U G93U C94U U96C C123U] | -3.01
18 | GACCAAUCUGCCCUCAGAGCUCGAGAACAUCUUCGGAUGCAGAUGAGGCAGGCUACGGUGGCGCGAUUUCGCCAACGUCCUCAACGUCCAAUGCAUCCCACCACAUGAUGAUGCCUGAAUAGCCUUGGUUUUUUG [G44U U55A A68U G69U C86G G120U] | -7.36
19 | GACCAAUCUGCCCUCAGAGCUCGAGAACAUCUUCGGAUGCAGAGGAGGCAGGCUUCGGUGGCGCGAUAUCGCCAACGUCCUCAACGUCCAAUGCAUCCCACCACAUGAUGAUGCCUGAACAGCCUUGGUUUUUUG [G69U C86G G120C] | 0.63
20 | GACCAAUCAGCCCUCAGAGCUCGAGAACAUCUUCGGAUGCAGAGGAGGCAGGCUUCGGUGGCGCGAUAGCGCCAACUUCCUCAACCUCCAAUGCAUCCCACCACAUGAUGAUGCCUGAAGAGUCUUGGUUUUUUG [U9A G77U C123U] | 1.84
21 | GACCAAUCUGCCCUCAGAGCUCGAGAACAUCUUCGGAUGCAGAGGAGGCAGGCUUCGGUGGAGCGAUAGCGCCAACGUCCUCAACCUUCAAUGCAUCCCACCACAUGAUGAUGCCUGAAGAGCCUUGGUUUUUUG [C62A C88U] | -2.23

Row | Variant | polymerase ribozyme fitness (log ratio)
22 | GACCAAUCUGCCCUCAGAGCUCGAGAACAUCUUCGGAUGCAGAGGAGGCAGGCUUCGGCGGCGCGAUAGCGCCAACGUCCUCAACCUUCAAUGCAUCCCACCACAUGAUGAUGCCUGAAGAGCCUUGGUUUUUUG [U59C C88U] | -0.959
23 | GACCAAUCUGCCCUCAGAGCUCGAGAACAUCUUCGGAUGCAGAGGAGGAAGGCUUCGGUGGCGCGAUAGCGCCAACGUCCUCAACCUCCAAUGCAUCCCACCACAUGAUAAUGCCUGAAGAGCCUUGGUUUUUUG [C49A G110A] | -1.34
24 | GACCAAUCUGCCCUCAGAGCUCGAGAACAUCUUCGGAUGCAGAGGAGGCAGGCUUCGGUGGCGCGAUAGGGCCAACGUCCUCAACCUCCAAUGCAUCCCACCACAUGAGGAUGCCUGAAGAGCCUUGGUUUUUUG [C70G U109G] | -6.4
25 | GACCAAUCUGCCCUCAGAGCCCGAGAACAUCUUCGGAUACAGAGGAGGCAGGCAUCGGUGGCGCGAUAGCGCCAACGACCUCAACCUCCAAUGCAUCUCACCACAUGAUUAUGCCUGAAGAGCCUUGGUUUUUUG [U21C G39A U54A U78A C98U G110U] | -6.3
26 | GACCAAUCUCCCCUCAGUGCUCGAGAACAUCUUCGGAUGCAGAGGAGGCAGGCUUCGGUGGCGCGAUAGCGCGAACGUCCUCAACCUCCAAUGCAUCCCACCACAUGAUGAUCCCUGAAGAGCCUUGGUUUUUUG [G10C A18U C73G G113C] | -5.21
27 | GACCAAUCUGCCCUCAGAGCUCGAGAACAUCUUCGGAUGCAGAGGAGGCAGGCUUCGGAGGCGCGAUAGCGCCAACGUCCUCAACCUCCAACGCAUCCCACCACAUGAUGAUGCCUGAAGAGCCUUGGUUUUUUG [U59A U92C] | -1.76
28 | GACCAAUCUGCCCUCAGAGCUCGAGAACAUCUUCGGAUGCAGUGGAGGCAGGCUUCGGUGGCGCGAUAACGCCAACGUCCUCAACCUCCAAUGCAUCCCACCACAUGAUGAUGCCUGAAGAGCCUUGGUUUUUUG [A43U G69A] | -5.69
29 | GACCAAUCUGCCCUCAAAGCUCGAGAACAUCUUCGGAUGCAGAGGAGGCAGGCUUCGGUGGCGCGAUAGCGCUAACGUCCUCAACCUCCAAUGCAUCCCACCACAUGAUGAUGCCUGAAGAGCCUUGGUUUUUUG [G17A C73U] | -2.84
30 | GACCAAUCUGCCCUCAGAGCUCGAGAACAUCUUCGGAUGCAGAGCAAGCAGGCUUCGGUGGCGCGAUAGCGCCAACGUGCUCAACCUCCAAUGCAUCCCACCACAUGAUGAUGCCUGAAGAGCCUUGGUUUUUUG [G45C G47A C79G] | -5.96
31 | GACCAAUCUGCCCUCAGAGCUCGAGAACAUCUUCGGAUGCAGAGGAGGCAGGCUUAGGUGGCGUGAUAGCGCCAACGUCCUCAACCUCCAAUGCAUCCCACCACAUGAUGAUGACUGAAGAGCCUUGGUUUUUUG [C56A C64U C114A] | -2.59
32 | GACCAAUCUGCCCUCAGAGCUCGAGAACAUCUUCGGAUGCAGAGGUGGCAGGCUUCGGUGGCGCGAUAGCGCGGACGUCCUCAACCUCCAAUGCAACCCACCACAUGAUGAUGCCUGAAGAGCCUUGGUUUUUUG [A46U C73G A74G U96A] | -4.63
33 | GAGCAAUCUGCCCUCAGAGCUCGAGAUCAUCUUCGGAUGCAGAGGAGGCAGACUUCGGUGGCGCGAUAGCGUCAACGUCCUCAACCUCCAAUGCAUCCCACCACAUGAUGAUGCCUGAAGAGCCUUGGAUUUUUG [C3G A27U G52A C72U U129A] | -4.63
34 | GACCAAUCUGCCCUCAGAGCUCGAGAACAUCUUCGGAUGCAGUGGAGGCAGGCUUCGGUGGCGCGAUAGCGCCAACGUCCUCAACCUCCAAUGCAUCCCACCACAUGAUGAUGCCUGAAGGGCCUUGGUUUUUUG [A43U A121G] | 1.17
35 | GACCAAUCUGCCGUCAGAGCUCGAGAACUUCUUAGGAUGCAGAGGAGGCAGGCUUCGGUGUCGCGAUAGCGCCAACGUCCUCAACCUCCAAUGCAUCCCACCACAUGAUGUUGCCUGAAGAGCCUUGGUUUUCUG [C13G A29U C34A G61U A111U U133C] | -1.41
36 | GACCAAUCUGCCCUCAGAGCUCGAGAACUUCUUCGGAUGCAGAGGACGCAGGCUUCGGUGGCGCGAUAGCGCCAACGUCCUCAAUCUCCAAUGCAUCCCACCACAUGAUGAUGCCUGAAGAGUCUUGGUUUUUUG [A29U G47C C85U C123U] | -4.09
37 | GACCAAUCUGCGCUCAGAGCUCGGGAACAUCUUCGGAUGCUGAGGAGGCAGGCUUCCGUGGCGCGAUAGCGCCAACGUCCUCAACCUCCAAUGCAUCCCACCACAUGAUAAUGCCUGAAGAGCCUUGGUUUUUUG [C12G A24G A41U G57C G110A] | -5.76
38 | GACCAAUCUGCCCUCAGAGCUCGAGAACAUCUUCGGAUGCAGAGGAGGCAGGCUUCGGUGGUGCGAUAGCGCCAACGUCCUCAACCUCCAAUGCAUCCCACCACAUAAUGAUGCCUGAAGAGCCUUGGUUUUUUG [C62U G107A] | -4.72
39 | GACCAAUGUGCCCUCAGAGUUCGAGAACAUCUUCGGAUGCAGAGGAGGCAGGCUUCGGUGGCGCGAUAGCGCCAACGUCCGCAACCUCCAAUGCAUCCCACCACAUGAUGAUGCCUGAAGAGCCUUGGUUUUUUG [C8G C20U U81G] | -4.46
40 | GACCAAUCUGCCCUCAGAGCUCGAGAUCAUCUUCGGAUGGAGAGUAGGCAGGCUUCGGUGGCGCGAUAGCGCCAACGUCCUCAACCUCCAAUGCAUCCCACCACAUGAUGAUGCCUGAUGAGCCUUGGUUUUUUG [A27U C40G G45U A119U] | -5.54
41 | GACCAAUCUGCCCUCAGAGCUCGAGAACAUCUUCGGAUGCAGAGGAGGCAGGCUUCGGCGGCGCGAUAGCGCCAACGUACUCAACCUCCAAUGCAUCCCACCACAUGAUGAUGCCUGAAGAAACUUGGUUUAUUG [U59C C79A G122A C123A U132A] | -2.39
42 | GACCAAUCUGCCCUCAGAGCUCGAGAACAUCUUCGGAUGUAGAGGAGGCAGGCUUCGGUGGCGCGAUAGCGCCAACGUCCUCAACCUCCAAUGCAUCCCACCACAUGAUGAUCCCUGAAGAGCCUUGGUUUUUUG [C40U G113C] | -2.55
